Experiment [1] deals with T1, human TMEM106B (human, UniProt Q9NUM4 2-274).
T1 construct: full-length, transiently expressed on HEK293 cells, or natively expressed on HeLa, U251 and A549 cells (the cell is named under assay); also the source of the Pepscan peptides; also called huTMEM106B; huTMEM
As to the kind of experiment: FACS HEK+huTMEM 0.1 ug/ml.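 Further: flow cytometry binding of purified mouse IgG antibodies to HEK293 cells transiently expressing TMEM106B, read as median fluorescence intensity on live cells (propidium iodide negative gating).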
Experimental: (§1) Purified anti-TMEM106B antibodies were evaluated for their binding affinity to various TMEM106B-expressing cell lines including HEK293 transiently transfected with human/cyno/mouse TMEM106B, as well as HeLa cells and A549 cells. Antibodies tested for this experiment were mouse IgGs purified from hybridoma supernatant. Affinity binding to cells was determined as follows. Briefly, 1×10\hat{ }5 cells were aliquoted per well in 96-well round bottom plates and incubated with 50 μL of purified anti-TMEM106B antibody at various concentrations (10× dilutions starting at 10 μg/ml) in FACS buffer (PBS+2% FBS+1 mM EDTA). […] Sorting was performed on a iQue (Intellicyt), with sort gates drawn to exclude dead (propidium iodide+) cells. Binding data was analyzed using median fluorescent intensity (MFI) and graphed in Prism. Values presented are MFI.

Experiment [2] concerns the target T1, human TMEM106B. Nature of the experiment: FACS A549 10 ug/ml.
Experimental: as §1
The target in experiment [3] is T1, human TMEM106B. As to the kind of experiment: FACS HeLa.
Experimental: (§2) All cells were cultured in either T75 or T150 flasks. […] The enzyme was quenched by addition of fresh media, and the cells were then distributed into 96-well plates for FACS analysis.
(§3) FACS analysis was performed as follows. Each cell type was aliquoted in 96-well round bottom plates (2×10^5 cells per well), washed once with FACS buffer (PBS+2% FBS+1 mM EDTA), and incubated with 50 μL of hybridoma supernatant or purified antibody (10 μg/ml in FACS buffer) on ice for 1 hour. […] Following this secondary incubation, the cells were again washed 2× with ice-cold FACS buffer and resuspended in a final volume of 50 μL of FACS buffer+0.25 μl/well propidium iodide (Fisher Scientific #4BDB556463). Analysis was performed on a FACSCanto system (BD Biosciences) or iQue (Intellicyt), with sort gates drawn to exclude dead (i.e., propidium iodide positive) cells.
Experiment [4] addresses T1, human TMEM106B. Nature of the experiment: FACS HEK+huTMEM 1.0 ug/ml.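 Further: binding of purified mouse IgG antibodies to HEK293 cells transiently expressing human TMEM106B, read by flow cytometry as median fluorescence intensity of live, propidium iodide-negative cells.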
Experimental: as §1
Experiment [5] deals with T1, human TMEM106B. Nature of the experiment: FACS A549 1 ug/ml.
Experimental: as §1
For experiment [6], the target named is T1, human TMEM106B. As to the kind of experiment: FACS HEK+huTMEM 10 ug/ml.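 Further: flow cytometric binding of purified mouse IgG antibodies to HEK293 cells transiently expressing human TMEM106B, read as median fluorescence intensity on live cells with propidium iodide-positive cells excluded.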
Experiment [7] deals with T1, human TMEM106B. Nature of the experiment: FACS A549.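 Further: flow cytometry of cells incubated on ice for 1 h with hybridoma supernatant or purified antibody at 10 µg/mL, dead propidium iodide-positive cells gated out.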
Experimental: as §2, §3
Another experiment addresses T2, mouse TMEM106B (mouse, UniProt Q80X71 2-275).
T2 construct: transiently expressed on HEK293 cells, or native on mouse Neuro2a cells; also called moTMEM106B; murine TMEM106B
As to the kind of experiment: FACS Neuro2a.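 Further: flow cytometry of antibody binding to cells: hybridoma supernatant or purified antibody at 10 µg/ml, 1 h on ice, secondary detection, propidium iodide–positive dead cells gated out.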

The target of experiment [8] is T1, human TMEM106B. Nature of the experiment: FACS U251.
Experimental: as §2, §3
Experiment [9] addresses T1, human TMEM106B. Nature of the experiment: FACS HEK+huTMEM 0.1 ug/ml (2nd column so headed).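 Further: flow cytometry binding of purified anti-TMEM106B mouse IgG to HEK293 cells transiently transfected with TMEM106B, read as median fluorescence intensity on live (propidium iodide-negative) cells.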

Experimental for mouse TMEM106B: as §2, §3

B1: TM-6 (antibody, V domains shown)
VH: QVQLQQSGAELVKPGASVKLSCKASGYTFTEYTIHWVKQRSGQGLEWIGWFYPGSTYIDYNEKFKDKATLTADKSSSTVYLELSRLTSEDSAVYFCARHEEDYSNWFPFWGQGTLVTVSA
VL: DIQMSQSSSYLSVSLGGRVTITCKASDHINNWLAWYQQKPGNAPRLLISGATSLETGVPSRFSGSGSGKDYTLSITSLQTEDVATYYCQQYWSSPYTFGGGTKLEIK
notes: mouse IgG (hybridoma)
As for B1, the MFI with human TMEM106B [1] is 327 MFI; with human TMEM106B [2] it was 544 MFI; in the experiment with human TMEM106B [3] it was 520 MFI; in the experiment with human TMEM106B [4] it was 393 MFI; in the experiment with human TMEM106B [5], 418 MFI; in the experiment with human TMEM106B [6], 581 MFI. Moreover, the MFI was 1100 MFI with human TMEM106B [7], 371 MFI in the experiment with mouse TMEM106B, 304 MFI in the experiment with human TMEM106B [8] and 294 MFI with human TMEM106B [9].

B2: TM-3 (antibody, V domains shown)
VH: QVTLKESGPGIVQPSQTLSLTCSFSGFSLNTLGRGVGWIRQPSGKGLEWLAKIWWNDDKFYYPALKSRLTISKDTSKNQIFLKIANVDTADSATYYCARIAGGTGAAYWGQGTTLTVSS
VL: DIVMTQAAFSNPVTLGTSASISCRSSKSLLHSNGITYLYWYLQKPGQSPQLLISQMSSLASGVPDRFSSGGSGTDFTLRISRVEAEDVGVFYCAQNLELPWTFGGGTKLELK
As for B2, the MFI in the experiment with human TMEM106B [1] amounted to 48700 MFI; in the experiment with human TMEM106B [2], 7670 MFI; with human TMEM106B [3] it was 2690 MFI; with human TMEM106B [4], 89100 MFI; in the experiment with human TMEM106B [5], 4840 MFI; with human TMEM106B [6], 82300 MFI. Also, the MFI turned out to be 1800 MFI with human TMEM106B [7], 1980 MFI with mouse TMEM106B, 1080 MFI in the experiment with human TMEM106B [8] and 7700 MFI with human TMEM106B [9].

B3: TM-8 (antibody, V domains shown)
VH: QIQLVQSGPELKKPGETVKISCKASGYTFTDYPMHWVKQAPGKGFKWMGVIYTDTGEPKYAEVFKGRFAFSLETSASTAYLQINNLKNEDTATYFCVRRLAYWGQGTLVTVSA
VL: DIKMTQSPSSMYASLGERVTITCKASQDINSYLSWFQQKPGKSPKTLIFRANRLVDGVPSRFSGSGSGQDYSLTISSLEYEDMGIYYCLQYDEFPLTFGAGTKLEMK
notes: mouse IgG (hybridoma)
Turning to B3, the MFI in the experiment with human TMEM106B [1] was 305 MFI; with human TMEM106B [2] it was 492 MFI; with human TMEM106B [3], 568 MFI; with human TMEM106B [4], 317 MFI; with human TMEM106B [5] it was 393 MFI; with human TMEM106B [6], 465 MFI. The MFI stood at 554 MFI with human TMEM106B [7], 370 MFI with mouse TMEM106B, 304 MFI with human TMEM106B [8] and 301 MFI with human TMEM106B [9].

B4: TM-31 (antibody, V domains shown)
VH: QVQLQQSGAELAKPGASVKVSCKASGYTFISYWMNWVKQRPGQGLEWIGYINPTSGYTRYNQKFKDKATLTADKSSSTAYMQLSSLTYEDSAVYYCARSPPTVVLIGYFDYWGQGTTLTVSS
VL: DIKMTQSPSSMYASLGERVTFTCKASQDINSYLSWFQQKPGKSPKTLIYRGNGLVDGVPSRFSGSGSGQDYSLTISSLEYEDMGIYYCLQYDEFPFTFASGTKLEIK
notes: mouse IgG (hybridoma)
As to B4, the MFI in the experiment with human TMEM106B [1] stood at 1390 MFI; with human TMEM106B [2], 527 MFI; with human TMEM106B [3] it was 799 MFI; with human TMEM106B [4], 3680 MFI; in the experiment with human TMEM106B [5] it was 403 MFI; with human TMEM106B [6] it was 6060 MFI. In addition, the MFI in the experiment with mouse TMEM106B came out at 325 MFI; with human TMEM106B [8] it was 352 MFI; in the experiment with human TMEM106B [9], 596 MFI.

B5: TM-24 (antibody, V domains shown)
VH: QVQLKQSGPGQVQPSQSLSITCTVSGFSLSDYGVHWVRQSPGKGLEWLGVIWNNGNTDYNAAFISRLSINKDNSKSQVFFKMTSLQADDTAIYYCVRSLRPLHFDYWGQGTTVTVSS
VL: DIVMTQSPSSLTMSVGQKVTMNCKSSQSLLNSNNQQNYLAWYQQKPGQSPKLLVYFASIRESGVPDRFIGSGSGTDFTLTINSVQAEDLADYFCQQHYSTPFTFGSGTKLEIR
notes: mouse IgG (hybridoma)
Take B5: the MFI with human TMEM106B [1] worked out at 22000 MFI; with human TMEM106B [2], 4480 MFI; with human TMEM106B [4], 64500 MFI; in the experiment with human TMEM106B [5], 2880 MFI; with human TMEM106B [6] it was 66300 MFI; with human TMEM106B [9], 3620 MFI.

B6: TM-2 (antibody, V domains shown)
VH: HIQLVQSGPELKKPGETVKISCKASGYTFTEYPMHWVKQAPGKGFRWMGMIYTNTGEPTYAAEFKGRFAFSLETSASTGYLQINNLKNEDSATYFCVTAGYWGQGTLVTVSA
VL: QIVLTQSPAILSASPGEKVTMTCRASSSVSYIHWFLQKPGSSPKPWIYATSNLASGVPFRFIGSGSGTSYSLTISGVEAEDSATYYCQQWSSNPSTFGAGTKLELK
B6: the MFI stood at 4730 MFI with human TMEM106B [1]; 3360 MFI with human TMEM106B [2]; 2530 MFI in the experiment with human TMEM106B [3]; 29300 MFI with human TMEM106B [4]; 1090 MFI in the experiment with human TMEM106B [5]; 55500 MFI in the experiment with human TMEM106B [6]. For the same molecule, the MFI with human TMEM106B [7] is 1890 MFI; with mouse TMEM106B, 2900 MFI; in the experiment with human TMEM106B [8], 1410 MFI; in the experiment with human TMEM106B [9] it was 1440 MFI.

B7: TM-5 (antibody, V domains shown)
VH: QVQLQQSGTELARPGASVKVSCKASGYIFTTYGITWVKQRGGQGLEWIGEIYPRSDNTYYNEKFKDKATLTADKSSSTAYMELRSLTSEDSAVYFCARSKGSGTGDYWGQGTTVTVSS
VL: DIQMTQSPASLSASVGETVTITCRASENIYIYLAWYQQKQGKTPQLLVYNGKMLAENVPSRFSGSGSGTQFSLKINSLQPEDFGSYYCQHHYGSPPAFGAGTKLELK
With B7, the MFI was 10800 MFI with human TMEM106B [1]; 4800 MFI in the experiment with human TMEM106B [2]; 1740 MFI in the experiment with human TMEM106B [3]; 64500 MFI with human TMEM106B [4]; 1970 MFI with human TMEM106B [5]; 59300 MFI with human TMEM106B [6]. Moreover, the MFI in the experiment with human TMEM106B [7] was 1170 MFI; with mouse TMEM106B it was 1610 MFI; in the experiment with human TMEM106B [8], 866 MFI; in the experiment with human TMEM106B [9], 2180 MFI.

B8: TM-7 (antibody, V domains shown)
VH: EVQLQQSGPVLVKPGPPVKISCKASGFTFTDYYIHWVKLSHGKSLEWIGLVYPYNGDTDYNQKFKGKATLTVDTSSSTAYMELNSLTSEDSAVYYCARTYYANSPDYWGQGTTVTVSS
VL: DIVMTQSPSSLSVSAGEKVTMSCKSSQSLLNSGNQRNYLAWYQQKPGQPPKLLIYGASTRESGVPDRFTGSGSGTDFTLTISNVQAEDLAVYYCQNDHSYPLTFGAGTKLELK
B8: the MFI was 9870 MFI with human TMEM106B [1]; 1810 MFI with human TMEM106B [2]; 1070 MFI with human TMEM106B [3]; 40000 MFI in the experiment with human TMEM106B [4]; 883 MFI with human TMEM106B [5]; 40800 MFI in the experiment with human TMEM106B [6]. Besides, the MFI with human TMEM106B [7] was determined as 647 MFI; with mouse TMEM106B, 1200 MFI; in the experiment with human TMEM106B [8], 442 MFI; with human TMEM106B [9], 1670 MFI.

B9: TM-39 (antibody, V domains shown)
VH: HVQRQQSGTELAKPGASVKLSCKTSGYTFTDYWMHWIKQRPGQGLEWIGFINPSSGYTKYNQNFKDKATLTADKSSSTAYMQLSSLTYEDSAVFYCAREAGSISDWYFDVWGTGTTVTVSS
VL: DIVMTQAAPSIPVTPGESVSISCRSSKTLLNSNGNTYLYWFLQRPGQPPQLLIYRMSNLASGVPDRFSGSGSGTAFTLRISRVEAEDVGVYYCMQHLDYPYTFGGGTQLEIK
With B9, the MFI amounted to 19200 MFI in the experiment with human TMEM106B [1]; 5330 MFI with human TMEM106B [2]; 55600 MFI with human TMEM106B [4]; 3610 MFI with human TMEM106B [5]; 51900 MFI with human TMEM106B [6]; 3850 MFI in the experiment with human TMEM106B [9].

B10: TM-1 (antibody, V domains shown)
VH: QVQLQQSGAELVRPGTSVKVSCKASGYAFTNYLIEWVKQRPGQGLEWIGVINPGSGGTKYNEKLKGKATLTADKSSSTAYMQLSSLTSVDSAVYFCARRGYTIYDFYAMDYWGQGTSVTVSS
VL: DVLMTQTPLSLPVSLGDHASISCRSSQSIVYNNGNTYLEWYLQKPGQSPKLLIYKVSNRFSGVPDRFSGSGSGTDFTLKISRVEAEDLGVYYCFQVSHVPFTFGSGTKLEIK
Take B10: the MFI came to 1330 MFI with human TMEM106B [1]; 409 MFI in the experiment with human TMEM106B [2]; 253 MFI with human TMEM106B [3]; 2010 MFI with human TMEM106B [4]; 364 MFI with human TMEM106B [5]; 2380 MFI with human TMEM106B [6]. In addition, the MFI with human TMEM106B [7] came to 1460 MFI; with mouse TMEM106B, 253 MFI; in the experiment with human TMEM106B [8], 244 MFI; with human TMEM106B [9], 655 MFI.

B11: TM-30 (antibody, V domains shown)
VH: QVQLQQSGPELVKPGASVKLSCKASDNTFTNYDVNWVRQRPGQGLEWIGWIYPRDGTTIYNEKFKGRATLTVDTSSSTAYMELHSLTSEDSAVFFCARTLPQAMDYWGQGTSVTVSS
VL: DVLMTQSPLSLPVSLGDQVSISCRSSQTIVHRNGNTYLEWYLQKPGQSPKLLIYKVSNRFSGVPDRFSGSGSGTDFTLKISRVEAEDLGVYYCFQGSHLPWTFGGGTKLEIK
notes: mouse IgG (hybridoma)
Regarding B11, the MFI amounted to 18400 MFI with human TMEM106B [1]; 4040 MFI with human TMEM106B [2]; 63500 MFI in the experiment with human TMEM106B [4]; 3030 MFI with human TMEM106B [5]; 61500 MFI with human TMEM106B [6]; 3070 MFI with human TMEM106B [9].

B12: TM-32 (antibody, V domains shown)
VH: EVQLQQSGAELVRPGASVRLSCIASGFNIKDYYMYWVKQRPEQGLEWIGRIDPEDGDTEYVPKFQGKATMTADTSSNTAYLQLSSLTSEDIGVYYCTTRTWDLYYAVDNWGQGTSVTVSS
VL: DVLMTQTPLSLPVSLGDQASISCRSSQNIVHSNGNTYLEWYLQKPGQSPKLLIDKVSNRFSGVPDRFSGSGSGTDFTLKISRVEAEDLGIYYCFQGSHVPFTFGSGTKLEIK
Regarding B12, the MFI with human TMEM106B [1] is 20300 MFI; in the experiment with human TMEM106B [2], 6100 MFI; with human TMEM106B [4], 63300 MFI; with human TMEM106B [5], 3930 MFI; in the experiment with human TMEM106B [6], 61100 MFI; with human TMEM106B [9], 4100 MFI.
